The assay concerns NPR2. In words: cGMP catchpoint assay of NPR2 variants in transfected HEK293 cells treated with 20 nM CNP. Type of assay: cell-based. The arrangement: key to Lable: loss-of-function (LoF); Gain-of-function (GoF). The conditions noted are these: for average phenotype: cGMP normalized to RedLuciferase and to WT = 1, HEK293, 20 nM CNP, 0.4 nM IBMX, at least 3 repeat experiments with 4 replicates each; for Lable: high-confidence variant class. As to the method:
Described herein is an in-vitro assay (cGMP) to assess the activities of >260 NPR2 variants. NPR2 protein-altering variants have been identified in the UK Biobank study and described in Estrada et al. (Nat Commun. 2021 12 (1): 2224). NPR2-expression constructs were transfected into HEK293 cells and 3 days later cells were treated with […] IBMX and 20 nM CNP in serum-free DMEM prior to measuring cGMP levels. The cGMP catchpoint ELISA competition assay (Molecular Devices) was used to measure cGMP according to manufacturer recommendations. RedLuc was used as a transfection control (FIG. 8A).
The NPR2 alpha-fold structure was obtained from a recent alpha-fold publication (Jumper et al., Nature 596:583-589 (2021)). A list of phenotypically characterized “high-confidence” variants was generated (Table 4). Phenotype is calculated by determining levels of cGMP using a standard curve. This value to normalized to RedLuciferase (transfection control). This value is further normalized by setting WT to 1. Average value is calculated from at least 3 repeat experiments with 4 replicates each.

The values that follow come from US20250032576A1, “CNP Therapy” (BIOMARIN PHARMACEUTICAL INC., priority 2021, published 2025).

B1: Thr297Met: NPR2 protein-altering variant, expression construct transfected into HEK293 cells (protein)
chain: RNLTLAVVLPEHNLSYAWAWPRVGPAVALAVEALGRALPVDLRFVSSELEGACSEYLAPLSAVDLKLYHDPDLLLGPGCVYPAASVARFASHWRLPLLTAGAVASGFSAKNDHYRTLVRTGPSAPKLGEFVVTLHGHFNWTARAALLYLDARTDDRPHYFTIEGVFEALQGSNLSVQHQVYAREPGGPEQATHFIRANGRIVYICGPLEMLHEILLQAQRENLTNGDYVFFYLDVFGESLRAGPTRATGRPWQDNRTREQAQALREAFQTVLVIMYREPPNPEYQEFQNRLLIRAREDFGVELGPSLMNLIAGCFYDGILLYAEVLNETIQEGGTREDGLRIVEKMQGRRYHGVTGLVVMDKNNDRETDFVLWAMGDLDSGDFQPAAHYSGAEKQIWWTGRPIPWVKGAPPSDNPPCAFDLDDPSCDKTPLSTLAIVALGTGITFIMFGVSSFLIFRKLMLEKELASMLWRIRWEELQFGNSERYHKGAGSRLTLSLRGSSYGSLMTAHGKYQIFANTGHFKGNVVAIKHVNKKRIELTRQVLFELKHMRDVQFNHLTRFIGACIDPPNICIVTEYCPRGSLQDILENDSINLDWMFRYSLINDLVKGMAFLHNSIISSHGSLKSSNCVVDSRFVLKITDYGLASFRSTAEPDDSHALYAKKLWTAPELLSGNPLPTTGMQKADVYSFGIILQEIALRSGPFYLEGLDLSPKEIVQKVRNGQRPYFRPSIDRTQLNEELVLLMERCWAQDPAERPDFGQIKGFIRRFNKEGGTSILDNLLLRMEQYANNLEKLVEERTQAYLEEKRKAEALLYQILPHSVAEQLKRGETVQAEAFDSVTIYFSDIVGFTALSAESTPMQVVTLLNDLYTCFDAIIDNFDVYKVETIGDAYMVVSGLPGRNGQRHAPEIARMALALLDAVSSFRIRHRPHDQLRLRIGVHTGPVCAGVVGLKMPRYCLFGDTVNTASRMESNGQALKIHVSSTTKDALDELGCFQLELRGDVEMKGKGKMRTYWLLGERKGPPGLL
As for B1, the average phenotype is given as 0.03025 and the Lable entry was “LoF”.

B2: Ile494Ser: NPR2 protein-altering variant, expression construct transfected into HEK293 cells (protein)
chain: RNLTLAVVLPEHNLSYAWAWPRVGPAVALAVEALGRALPVDLRFVSSELEGACSEYLAPLSAVDLKLYHDPDLLLGPGCVYPAASVARFASHWRLPLLTAGAVASGFSAKNDHYRTLVRTGPSAPKLGEFVVTLHGHFNWTARAALLYLDARTDDRPHYFTIEGVFEALQGSNLSVQHQVYAREPGGPEQATHFIRANGRIVYICGPLEMLHEILLQAQRENLTNGDYVFFYLDVFGESLRAGPTRATGRPWQDNRTREQAQALREAFQTVLVITYREPPNPEYQEFQNRLLIRAREDFGVELGPSLMNLIAGCFYDGILLYAEVLNETIQEGGTREDGLRIVEKMQGRRYHGVTGLVVMDKNNDRETDFVLWAMGDLDSGDFQPAAHYSGAEKQIWWTGRPIPWVKGAPPSDNPPCAFDLDDPSCDKTPLSTLAIVALGTGITFIMFGVSSFLIFRKLMLEKELASMLWRSRWEELQFGNSERYHKGAGSRLTLSLRGSSYGSLMTAHGKYQIFANTGHFKGNVVAIKHVNKKRIELTRQVLFELKHMRDVQFNHLTRFIGACIDPPNICIVTEYCPRGSLQDILENDSINLDWMFRYSLINDLVKGMAFLHNSIISSHGSLKSSNCVVDSRFVLKITDYGLASFRSTAEPDDSHALYAKKLWTAPELLSGNPLPTTGMQKADVYSFGIILQEIALRSGPFYLEGLDLSPKEIVQKVRNGQRPYFRPSIDRTQLNEELVLLMERCWAQDPAERPDFGQIKGFIRRFNKEGGTSILDNLLLRMEQYANNLEKLVEERTQAYLEEKRKAEALLYQILPHSVAEQLKRGETVQAEAFDSVTIYFSDIVGFTALSAESTPMQVVTLLNDLYTCFDAIIDNFDVYKVETIGDAYMVVSGLPGRNGQRHAPEIARMALALLDAVSSFRIRHRPHDQLRLRIGVHTGPVCAGVVGLKMPRYCLFGDTVNTASRMESNGQALKIHVSSTTKDALDELGCFQLELRGDVEMKGKGKMRTYWLLGERKGPPGLL
With B2, the average phenotype was 0.03638 and the Lable entry is “LoF”.

B3: Ser522Pro: NPR2 protein-altering variant, expression construct transfected into HEK293 cells (protein)
chain: RNLTLAVVLPEHNLSYAWAWPRVGPAVALAVEALGRALPVDLRFVSSELEGACSEYLAPLSAVDLKLYHDPDLLLGPGCVYPAASVARFASHWRLPLLTAGAVASGFSAKNDHYRTLVRTGPSAPKLGEFVVTLHGHFNWTARAALLYLDARTDDRPHYFTIEGVFEALQGSNLSVQHQVYAREPGGPEQATHFIRANGRIVYICGPLEMLHEILLQAQRENLTNGDYVFFYLDVFGESLRAGPTRATGRPWQDNRTREQAQALREAFQTVLVITYREPPNPEYQEFQNRLLIRAREDFGVELGPSLMNLIAGCFYDGILLYAEVLNETIQEGGTREDGLRIVEKMQGRRYHGVTGLVVMDKNNDRETDFVLWAMGDLDSGDFQPAAHYSGAEKQIWWTGRPIPWVKGAPPSDNPPCAFDLDDPSCDKTPLSTLAIVALGTGITFIMFGVSSFLIFRKLMLEKELASMLWRIRWEELQFGNSERYHKGAGSRLTLSLRGPSYGSLMTAHGKYQIFANTGHFKGNVVAIKHVNKKRIELTRQVLFELKHMRDVQFNHLTRFIGACIDPPNICIVTEYCPRGSLQDILENDSINLDWMFRYSLINDLVKGMAFLHNSIISSHGSLKSSNCVVDSRFVLKITDYGLASFRSTAEPDDSHALYAKKLWTAPELLSGNPLPTTGMQKADVYSFGIILQEIALRSGPFYLEGLDLSPKEIVQKVRNGQRPYFRPSIDRTQLNEELVLLMERCWAQDPAERPDFGQIKGFIRRFNKEGGTSILDNLLLRMEQYANNLEKLVEERTQAYLEEKRKAEALLYQILPHSVAEQLKRGETVQAEAFDSVTIYFSDIVGFTALSAESTPMQVVTLLNDLYTCFDAIIDNFDVYKVETIGDAYMVVSGLPGRNGQRHAPEIARMALALLDAVSSFRIRHRPHDQLRLRIGVHTGPVCAGVVGLKMPRYCLFGDTVNTASRMESNGQALKIHVSSTTKDALDELGCFQLELRGDVEMKGKGKMRTYWLLGERKGPPGLL
As for B3, the average phenotype was 0.05673 and the Lable entry is reported as “LoF”.

B4: Lys1006Thr: NPR2 protein-altering variant, expression construct transfected into HEK293 cells (protein)
chain: RNLTLAVVLPEHNLSYAWAWPRVGPAVALAVEALGRALPVDLRFVSSELEGACSEYLAPLSAVDLKLYHDPDLLLGPGCVYPAASVARFASHWRLPLLTAGAVASGFSAKNDHYRTLVRTGPSAPKLGEFVVTLHGHFNWTARAALLYLDARTDDRPHYFTIEGVFEALQGSNLSVQHQVYAREPGGPEQATHFIRANGRIVYICGPLEMLHEILLQAQRENLTNGDYVFFYLDVFGESLRAGPTRATGRPWQDNRTREQAQALREAFQTVLVITYREPPNPEYQEFQNRLLIRAREDFGVELGPSLMNLIAGCFYDGILLYAEVLNETIQEGGTREDGLRIVEKMQGRRYHGVTGLVVMDKNNDRETDFVLWAMGDLDSGDFQPAAHYSGAEKQIWWTGRPIPWVKGAPPSDNPPCAFDLDDPSCDKTPLSTLAIVALGTGITFIMFGVSSFLIFRKLMLEKELASMLWRIRWEELQFGNSERYHKGAGSRLTLSLRGSSYGSLMTAHGKYQIFANTGHFKGNVVAIKHVNKKRIELTRQVLFELKHMRDVQFNHLTRFIGACIDPPNICIVTEYCPRGSLQDILENDSINLDWMFRYSLINDLVKGMAFLHNSIISSHGSLKSSNCVVDSRFVLKITDYGLASFRSTAEPDDSHALYAKKLWTAPELLSGNPLPTTGMQKADVYSFGIILQEIALRSGPFYLEGLDLSPKEIVQKVRNGQRPYFRPSIDRTQLNEELVLLMERCWAQDPAERPDFGQIKGFIRRFNKEGGTSILDNLLLRMEQYANNLEKLVEERTQAYLEEKRKAEALLYQILPHSVAEQLKRGETVQAEAFDSVTIYFSDIVGFTALSAESTPMQVVTLLNDLYTCFDAIIDNFDVYKVETIGDAYMVVSGLPGRNGQRHAPEIARMALALLDAVSSFRIRHRPHDQLRLRIGVHTGPVCAGVVGLKMPRYCLFGDTVNTASRMESNGQALKIHVSSTTTDALDELGCFQLELRGDVEMKGKGKMRTYWLLGERKGPPGLL
As for B4, the average phenotype is recorded as 0.0551 and the Lable result is “LoF”.

B5: Glu77Lys: NPR2 protein-altering variant, expression construct transfected into HEK293 cells (protein)
chain: RNLTLAVVLPEHNLSYAWAWPRVGPAVALAVEALGRALPVDLRFVSSELEGACSKYLAPLSAVDLKLYHDPDLLLGPGCVYPAASVARFASHWRLPLLTAGAVASGFSAKNDHYRTLVRTGPSAPKLGEFVVTLHGHFNWTARAALLYLDARTDDRPHYFTIEGVFEALQGSNLSVQHQVYAREPGGPEQATHFIRANGRIVYICGPLEMLHEILLQAQRENLTNGDYVFFYLDVFGESLRAGPTRATGRPWQDNRTREQAQALREAFQTVLVITYREPPNPEYQEFQNRLLIRAREDFGVELGPSLMNLIAGCFYDGILLYAEVLNETIQEGGTREDGLRIVEKMQGRRYHGVTGLVVMDKNNDRETDFVLWAMGDLDSGDFQPAAHYSGAEKQIWWTGRPIPWVKGAPPSDNPPCAFDLDDPSCDKTPLSTLAIVALGTGITFIMFGVSSFLIFRKLMLEKELASMLWRIRWEELQFGNSERYHKGAGSRLTLSLRGSSYGSLMTAHGKYQIFANTGHFKGNVVAIKHVNKKRIELTRQVLFELKHMRDVQFNHLTRFIGACIDPPNICIVTEYCPRGSLQDILENDSINLDWMFRYSLINDLVKGMAFLHNSIISSHGSLKSSNCVVDSRFVLKITDYGLASFRSTAEPDDSHALYAKKLWTAPELLSGNPLPTTGMQKADVYSFGIILQEIALRSGPFYLEGLDLSPKEIVQKVRNGQRPYFRPSIDRTQLNEELVLLMERCWAQDPAERPDFGQIKGFIRRFNKEGGTSILDNLLLRMEQYANNLEKLVEERTQAYLEEKRKAEALLYQILPHSVAEQLKRGETVQAEAFDSVTIYFSDIVGFTALSAESTPMQVVTLLNDLYTCFDAIIDNFDVYKVETIGDAYMVVSGLPGRNGQRHAPEIARMALALLDAVSSFRIRHRPHDQLRLRIGVHTGPVCAGVVGLKMPRYCLFGDTVNTASRMESNGQALKIHVSSTTKDALDELGCFQLELRGDVEMKGKGKMRTYWLLGERKGPPGLL
Take B5: the average phenotype came to 0.04986 and the Lable entry is recorded as “LoF”.
